Measurements from paper PMC9245421, “The VvWRKY37 Regulates Bud Break in Grape Vine Through ABA-Mediated Signaling Pathways”.

T1: VvABF2-HIS (grape vine, UniProt F6H1D1 1-447)
T1 sequence: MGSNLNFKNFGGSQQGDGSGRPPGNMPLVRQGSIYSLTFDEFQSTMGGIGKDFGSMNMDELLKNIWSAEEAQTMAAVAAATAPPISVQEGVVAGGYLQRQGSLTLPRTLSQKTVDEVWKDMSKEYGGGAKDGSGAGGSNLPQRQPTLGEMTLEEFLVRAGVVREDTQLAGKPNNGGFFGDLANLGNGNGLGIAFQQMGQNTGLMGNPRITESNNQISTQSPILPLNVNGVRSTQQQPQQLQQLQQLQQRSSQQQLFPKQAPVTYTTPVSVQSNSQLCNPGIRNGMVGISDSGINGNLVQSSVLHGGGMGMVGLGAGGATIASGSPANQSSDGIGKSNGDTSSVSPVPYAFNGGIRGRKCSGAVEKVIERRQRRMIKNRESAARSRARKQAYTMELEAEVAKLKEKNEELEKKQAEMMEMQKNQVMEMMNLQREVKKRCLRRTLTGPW

T2: VvABI5-HIS (grape vine, UniProt F6HQA3 1-409)
T2 sequence: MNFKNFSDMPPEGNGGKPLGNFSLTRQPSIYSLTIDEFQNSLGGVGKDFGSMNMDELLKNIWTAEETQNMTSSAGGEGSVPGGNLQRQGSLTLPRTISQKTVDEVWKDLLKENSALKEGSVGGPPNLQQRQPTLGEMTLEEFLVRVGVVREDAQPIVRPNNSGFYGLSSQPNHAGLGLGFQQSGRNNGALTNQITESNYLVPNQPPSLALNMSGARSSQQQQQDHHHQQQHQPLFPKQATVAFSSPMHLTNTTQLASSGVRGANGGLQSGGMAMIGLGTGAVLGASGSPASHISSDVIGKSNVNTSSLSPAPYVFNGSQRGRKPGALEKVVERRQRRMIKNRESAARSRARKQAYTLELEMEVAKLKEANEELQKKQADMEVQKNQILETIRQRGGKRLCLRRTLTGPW


Experiments:
VvABF2-HIS [1] = biological target: T1, VvABF2-HIS; assay: EMSA; EMSA: 2 ul of 5x buffer (50% glycerol, 50 mM MgCl2, 5 mM EDTA, 10 mM DTT, 500 mM KCl, 250 mM HEPES pH 7.4) in 10 ul, i.e. 1x = 10% glycerol, 10 mM MgCl2, 1 mM EDTA, 2 mM DTT, 100 mM KCl, 50 mM HEPES; 1 ul of 0.05 uM biotin probe; 24 C, 20 min; 6% native gel, 0.5x TBE; settings: protein: recombinant; tags: His (pET32a); label: biotin; blunt
VvABI5-HIS [2] = biological target: T2, VvABI5-HIS; assay: as above; settings: protein: recombinant; tags: His (pET32a); label: biotin; blunt
VvABF2-HIS [3] = biological target: T1, VvABF2-HIS; assay: competition; 100-fold unlabeled vs W37-P2; EMSA: 2 ul of 5x buffer (50% glycerol, 50 mM MgCl2, 5 mM EDTA, 10 mM DTT, 500 mM KCl, 250 mM HEPES pH 7.4) in 10 ul, i.e. 1x = 10% glycerol, 10 mM MgCl2, 1 mM EDTA, 2 mM DTT, 100 mM KCl, 50 mM HEPES; 1 ul of 0.05 uM biotin probe; 24 C, 20 min; 6% native gel, 0.5x TBE; settings: protein: recombinant; tags: His (pET32a); blunt
VvABI5-HIS [4] = biological target: T2, VvABI5-HIS; assay: as above; settings: protein: recombinant; tags: His (pET32a); blunt

| Binder | binding result (VvABF2-HIS [1]) | binding result (VvABI5-HIS [2]) | binding result (VvABF2-HIS [3]) | binding result (VvABI5-HIS [4]) |
| --- | --- | --- | --- | --- |
| W37-P1 (dsDNA) DNA 1: CTCTCTCCCACGTGCCGACCTCACACGTGTTAGCCTCAT DNA 2: ATGAGGCTAACACGTGTGAGGTCGGCACGTGGGAGAGAG | no binding | no binding |  |  |
| W37-P2 (dsDNA) DNA 1: TCCAAATGCTTTCACGTAATTTCATTTGTT DNA 2: AACAAATGAAATTACGTGAAAGCATTTGGA | binds | binds |  |  |
| W37-mP2 (dsDNA) DNA 1: TCCAAATGCTTTAACATGATTTCATTTGTT DNA 2: AACAAATGAAATCATGTTAAAGCATTTGGA |  |  | no binding | no binding |
